Source: patent publication US12366576B2, “Compositions, assays, and methods for direct modulation of fatty acid metabolism” (Dana-Farber Cancer Institute, Inc., priority 2016, dated 2025)
Bridge positions count the residues as written; N and C are the ends. Square brackets hold non-standard residues; d marks the D form. Ends that are not written are not given here. S5 = C=CCCC[C@](C)(N)C(=O)O

Key:
[1] = molecular target: T1, MCAD (Mus musculus, UniProt P45952); experiment: Biotinylated SAHB pulldown from MEF lysates, MCAD Western analysis; type: binding; settings: wild-type MEF lysates
T1 construct: endogenous in cells; host or cells: wild-type mouse embryonic fibroblasts (lysate)
T1 sequence (P45952 26-421): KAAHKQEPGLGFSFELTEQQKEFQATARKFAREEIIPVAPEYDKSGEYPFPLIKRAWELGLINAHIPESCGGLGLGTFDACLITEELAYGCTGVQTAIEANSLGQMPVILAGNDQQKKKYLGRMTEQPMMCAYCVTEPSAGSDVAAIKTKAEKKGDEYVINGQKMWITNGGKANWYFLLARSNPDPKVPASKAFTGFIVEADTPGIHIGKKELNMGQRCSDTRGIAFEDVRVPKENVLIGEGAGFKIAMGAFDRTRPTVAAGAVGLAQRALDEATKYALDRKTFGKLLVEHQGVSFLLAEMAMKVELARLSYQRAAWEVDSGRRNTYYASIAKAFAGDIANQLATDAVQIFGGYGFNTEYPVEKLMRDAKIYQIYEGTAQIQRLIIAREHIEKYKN
Text: To validate the MS result, the pulldowns were repeated and eluates run on a gel for anti-VLCAD Western blot analysis. […] All peptides faithfully recapitulated native BH3-binding propensities for endogenous MCL-1 protein (FIG. 8). The eluates were then probed for the other members of the acyl-CoA dehydrogenase family that manifest shorter fatty acid substrate specificities. MCL-1 SAHBD was able to pull down VLCAD, but not MCAD or SCAD (FIG. 9). Because the traditional MCL-1 staple location differs from that of the BIM, BID, and BAD SAHBs, it was important to confirm that the observed VLCAD binding specificity was due to BH3 sequence selectivity, not staple position. A BIM SAHB with the traditional MCL-1 staple (BIM SAHBF), and a MCL-1 stapled peptide with the traditional BIM staple (MCL-1 SAHBA), were generated. […]
Wild-type MEFs were trypsinized, washed once with cold PBS, and lysed on ice with NP-40 lysis buffer (50 mM Tris, pH 7.4, 150 mM NaCl, 0.5% (v/v) NP-40, complete protease inhibitor pellet (Roche)) using 1 ml of lysis buffer for every 10 million cells lysed. Cellular debris was pelleted at 14,000 g for 10 min at 4° C., and the supernatant was quantified using the BCA Protein Assay Kit (Thermo Fisher Scientific). […]

[2] = molecular target: T2, MCL-1ΔNΔC (Homo sapiens, UniProt Q07820); experiment: 19F NMR binding study with fluorinated SAHB; settings: fluorinated SAHB 25 μM, MCL-1ΔNΔC 0-45 μM
T2 construct: The MCL-1ΔNΔC construct was grown and expressed in E. coli as previously described; made in house; host or cells: E. coli BL21(DE3)
Procedure: To measure the direct binding interaction, ^19F NMR binding studies were conducted using fluorinated analogs of MCL-1 SAHBD. […] Both SAHBs, however, bind MCL-1ΔNΔC, as illustrated by a chemical shift of the peptide NMR peak in both cases (FIG. 15). […] To perform these experiments, N-terminal Btn-PEG analogs of the peptides were immobilized onto streptavidin probes that were then placed into protein solutions at a variety of concentrations to measure ligand-target association.
MCL-1ΔNΔC. The MCL-1ΔNΔC construct was grown and expressed in E. coli as previously described (see, e.g., Stewart, Nat Chem Biol., 6(6):595-601 (2010)). Transformed BL21(DE3) E. coli were grown at 37° C. to an OD of 0.8, after which they were induced with 0.5 mM IPTG. […]
To determine binding of SAHBs to VLCAD, fluorinated SAHB (25 μM) and VLCAD (0-125 μM) were mixed together in VLCAD FPLC buffer including 10% D2O to a final volume of 500 μL. […] The extent to which VLCAD bound the peptide was determined by measuring the peak width at half height (ν1/2) of the peptide ^19F signal. […] MCL-1ΔNΔC binding to SAHBs causes a change in the ^19F chemical shift of the peptide resulting in two peptide signals (instead of peak broadening), so extent of binding was quantified by measuring the peak height of “unbound” peptide relative to the bound peptide signal.

[3] = molecular target: T2, MCL-1ΔNΔC; experiment: Biolayer interferometry; type: binding; settings: Biotin-PEG peptide immobilized on streptavidin sensors
[4] = tested on: Mcl-1^F/F CreER^T2 cells; settings: vehicle and tamoxifen exposed cells; except at the highest dose applied (100 μM)

T2 sequence (Q07820 172-320 limits assumed, stated change not applied): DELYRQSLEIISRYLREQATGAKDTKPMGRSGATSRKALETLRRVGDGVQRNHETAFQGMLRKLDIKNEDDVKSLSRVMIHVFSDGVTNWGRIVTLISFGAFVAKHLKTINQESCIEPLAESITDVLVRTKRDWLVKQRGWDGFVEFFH

Substance: MCL-1 SAHBD: hydrocarbon-stapled peptide mimicking the MCL-1 BH3 domain (Stabilized Alpha-Helix of BCL-2 Domain), SEQ ID NO:19 (RKALETLRRVGDGV[S5]RNH[S5]TAF; staple 15-19)
- pull down of MCAD from cellular lysates [1]: not
- 19F NMR binding to MCL-1ΔNΔC (chemical shift of the peptide peak) [2]: binds directly
- biolayer interferometry association with MCL-1 [3]: bind to MCL-1
- cytotoxicity (cell viability) [4]: Essentially no cytotoxicity
